From patent US20260085129A1 (ECO ANIMAL HEALTH, published 2026)

How the values were obtained:
[1] = molecular target: T1, pCD163-SRCR1-9-huFc (porcine, UniProt Q2VL90 51-1028); assay: Biacore 3000 SPR, antigen amine-coupled on CM5 chip, pH 7.4
T1 construct: Limits 51-1028 are those the description gives for CD163-SRCR1-9; also called porcine CD163 SRCR1 to SRCR9 (no PST2) with human Fc; soluble CD163; not shown: human Fc (huFc)
T1 sequence: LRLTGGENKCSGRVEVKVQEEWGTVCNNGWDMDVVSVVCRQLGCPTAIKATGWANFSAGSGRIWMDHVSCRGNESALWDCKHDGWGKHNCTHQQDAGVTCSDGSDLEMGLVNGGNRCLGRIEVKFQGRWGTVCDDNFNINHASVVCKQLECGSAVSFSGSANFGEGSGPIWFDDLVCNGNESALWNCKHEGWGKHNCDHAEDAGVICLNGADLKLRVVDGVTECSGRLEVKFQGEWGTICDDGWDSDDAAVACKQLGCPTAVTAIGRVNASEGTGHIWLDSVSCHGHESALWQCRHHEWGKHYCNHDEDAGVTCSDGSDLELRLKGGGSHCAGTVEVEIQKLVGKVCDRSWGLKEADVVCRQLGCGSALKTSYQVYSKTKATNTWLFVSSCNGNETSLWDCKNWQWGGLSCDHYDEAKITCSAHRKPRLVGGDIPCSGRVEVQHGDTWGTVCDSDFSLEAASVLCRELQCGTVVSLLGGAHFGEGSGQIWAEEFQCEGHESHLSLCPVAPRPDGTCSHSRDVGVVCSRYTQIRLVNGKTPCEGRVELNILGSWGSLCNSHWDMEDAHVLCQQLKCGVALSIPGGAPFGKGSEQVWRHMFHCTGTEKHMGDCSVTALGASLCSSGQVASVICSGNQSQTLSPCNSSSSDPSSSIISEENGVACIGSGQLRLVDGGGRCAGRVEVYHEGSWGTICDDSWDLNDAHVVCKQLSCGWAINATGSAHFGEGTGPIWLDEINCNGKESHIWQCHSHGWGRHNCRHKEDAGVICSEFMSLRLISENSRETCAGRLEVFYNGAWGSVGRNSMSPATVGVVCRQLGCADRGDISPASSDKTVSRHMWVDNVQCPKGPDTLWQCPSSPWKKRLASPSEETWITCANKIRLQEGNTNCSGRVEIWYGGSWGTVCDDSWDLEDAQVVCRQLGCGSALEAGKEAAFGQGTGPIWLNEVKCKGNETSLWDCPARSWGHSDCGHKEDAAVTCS

[2] = molecular target: T2, pCD163-SRCR-FL-PST2-His (porcine, UniProt Q2VL90 51-1044); assay: Biacore 3000 SPR, antigen amine-coupled on CM5 chip, VHH 200-12.5 nM, pH 7.4, 1:1 binding with mass transfer
T2 construct: also called pCD163-1-PST2-His; pCD163-SRCR1-PST2; not shown: His tag
T2 sequence: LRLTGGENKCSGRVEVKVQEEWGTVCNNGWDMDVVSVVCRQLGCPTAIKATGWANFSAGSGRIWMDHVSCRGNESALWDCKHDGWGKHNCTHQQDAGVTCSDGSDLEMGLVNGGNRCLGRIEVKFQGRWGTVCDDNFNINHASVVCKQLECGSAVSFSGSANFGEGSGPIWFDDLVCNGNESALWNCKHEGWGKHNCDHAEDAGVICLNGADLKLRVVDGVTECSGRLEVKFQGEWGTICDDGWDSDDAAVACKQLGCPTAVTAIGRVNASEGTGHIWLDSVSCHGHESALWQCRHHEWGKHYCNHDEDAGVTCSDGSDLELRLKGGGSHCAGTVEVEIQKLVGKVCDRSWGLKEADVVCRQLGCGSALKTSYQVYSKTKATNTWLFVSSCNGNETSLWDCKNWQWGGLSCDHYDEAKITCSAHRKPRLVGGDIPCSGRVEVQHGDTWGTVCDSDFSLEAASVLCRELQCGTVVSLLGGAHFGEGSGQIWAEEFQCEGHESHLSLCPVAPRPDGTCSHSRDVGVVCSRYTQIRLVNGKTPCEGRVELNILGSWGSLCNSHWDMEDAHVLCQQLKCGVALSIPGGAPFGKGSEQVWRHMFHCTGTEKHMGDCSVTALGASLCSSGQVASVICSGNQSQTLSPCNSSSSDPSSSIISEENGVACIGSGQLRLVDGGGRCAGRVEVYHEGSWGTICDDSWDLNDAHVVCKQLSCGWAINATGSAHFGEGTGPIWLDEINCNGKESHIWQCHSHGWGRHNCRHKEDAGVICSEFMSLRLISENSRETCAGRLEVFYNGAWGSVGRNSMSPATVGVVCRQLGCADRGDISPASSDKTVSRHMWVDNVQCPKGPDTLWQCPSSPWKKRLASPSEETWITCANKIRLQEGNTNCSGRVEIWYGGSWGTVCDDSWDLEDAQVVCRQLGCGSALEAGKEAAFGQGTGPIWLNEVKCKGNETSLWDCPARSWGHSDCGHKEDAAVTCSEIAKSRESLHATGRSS
Method: Surface plasmon resonance (SPR) (Biacore 3000, GE Healthcare) was used to determine the binding kinetics of selected single domain antibodies at pH7.4. Approximately 2075 to 2423 RUs of pCD163-SRCR1-9-huFc or 2859 to 3286 RUs of pCD163-1-PST2-His. respectively, at 20 or 30 μg/ml in Acetate buffer pH 5.0 or pH 5.5 were immobilized onto a CM5 chip using the standard amine coupling procedure.
1×HBS-EP pH 7.4, was utilized as a running buffer during binding kinetic measurements. Purified VHH were injected at 2-fold dilution from 200 nM down to 12.5 nM in HBS-EP pH 7.4, at 30 μl/min for 2 minutes, followed by an off-rate wash for 1 min between injections. Off-rate wash was 300s after the last concentration injection in each cycle. RU levels were restored to base levels after regeneration with two injections of 10 μl of 1 M NaCl, 1 mM Glycine pH 1.5 between samples.
Fitting 1:1 binding with mass transfer was applied to the set of sample curves using the simultaneous fitting option of the BIAevaluation software to calculate the kinetic constants of the antibody-antigen interactions including association rate (ka), dissociation rate (kd) and affinity (KD). Curves were removed from the fitting after visual examination of the residuals and considering the value of Chi2: a minimum of 4 curves were considered for the simultaneous fitting.

B1: Clone 39-H17B11 VHH antibody (VHH)
VHH: QVQLVESGGGLVQAGGSLRLSCAASGRTFSSYAMGWFRQTPGKDREFVARIGWTGGTTIYADSVKGRFTISRDNAKNTVYLQMNSLKPEDTAVYYCAADQAGWRTAGVRNTYEYDYWGQGTQVTVSS
notes: Llama single domain antibody; also called clone 17B11; not shown: tags: c-myc tag on the soluble VHH in periplasmic extracts; FLAG and His tags on the purified VHH
In the case of B1, the binding result [1] is reported as “no binding (tested: 200 nM (highest VHH concentration))”, the Kd [2] is reported as 255 µM and the koff [2] is reported as 0.281 s⁻¹. The kon [2] was 1100 M⁻¹ s⁻¹.
